Read-outs that look alike come from different tables or passages of the source. Numbered stars: 1 amine (or outer) side, 2 acyl side, 3 side chain; on linkers, the order of the positions; unused ones are H or OH. Square brackets hold non-standard residues; d marks the D form. Ends that are not written are not given here. * marks the point of attachment. Fluorescein(5-Mal) = O=C1OC2(c3ccc(O)cc3Oc3cc(O)ccc32)c2ccc(N3C(=O)CC(*)C3=O)cc21; εLys = N[C@@H](CCCCN[*:1])C(=O)[*:2]
Experiments:
RBE4 cell monolayers [1] = assay: Transwell transendothelial transport across RBE4 cell monolayers (in vitro BBB model); conditions: apical to basolateral and basolateral to apical, up to 120 minutes
[2] = target: T1, preformed Aβ 1-40 aggregates (Homo sapiens, UniProt P05067); assay: Competitive binding of ^99mTc-peptide to preformed Aβ 1-40 aggregates with unlabeled competitor; conditions: 1,000-fold molar excess of competitor
T1 construct: preformed Aβ 1-40 aggregates; purchased
T1 sequence (P05067 672-711): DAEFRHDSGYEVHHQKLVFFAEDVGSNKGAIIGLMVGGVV
Method: Binding assays are performed to determine the binding specificity of the peptide conjugate. For example, a preliminary radioassay of Aβ-binding is performed. For example, a conjugate consisting of radiolabeled ^99mTc-peptide conjugate is incubated with Aβ fibrils in PBS for about 1-3 hours. Bound ^99mTc-peptide conjugate is separated on a Centricon filter unit (with, for example a 100 KDa cut off) and washed several times with PBS buffer. Saturable binding is indicated by calculation of a Kd (affinity constant) as well known in the art to help evaluate the relative amount of specific binding as opposed to non-specific binding. […] Radiolabeled peptide conjugate that is displaceable to background with either 1,000-fold molar excess of unlabeled peptide conjugate or, for example, cold Re-peptide conjugate, supports receptor-like binding behavior of the peptide conjugate to Aβ fibrils. Binding of the lead ^99mTc-peptide to preformed Aβ 1-40 aggregates in presence of increasing equivalents of unlabeled competing peptide. The aggregate-bound ^99mTc-peptide was isolated from free labeled peptide by centrifugation using Centricon (100 kDa cutoff) filters. The concentration of aggregate bound ^99mTc-peptide was calculated on the basis of activity retained on the filters (FIG. 5). […] Each data point represents a mean of triplicate measurements.

[3] = Acute toxicity in mice after intravenous bolus injection; type: in vivo; conditions: Balb/C male mice, intravenous bolus 14 mg/kg, up to several days post-injection
Method: Although absolute concentration of radiotracers in vivo is normally too low to cause any host toxicity, nevertheless host safety is a key determinant for any successful diagnostic agent. Therefore, using a Re-labeled peptide as a surrogate for a Tc-labeled peptide, acute toxicity in mice (Balb/C; male; 6-8wks old) was determined.

[4] = target: T2, Aβ 1-40 aggregates (Aβ fibrils) (Homo sapiens, UniProt P05067); assay: Binding assay of ^99mTc-peptide with Aβ fibrils (Centricon filter separation); conditions: PBS, RT, 90 min, mean of triplicate; read-out: Kd (saturable binding to Aβ fibrils)
T2 construct: preformed Aβ 1-40 aggregates; purchased
T2 sequence (P05067 672-711): as above
Method: Binding assays are performed to determine the binding specificity of the peptide conjugate. For example, a preliminary radioassay of Aβ-binding is performed. For example, a conjugate consisting of radiolabeled ^99mTc-peptide conjugate is incubated with Aβ fibrils in PBS for about 1-3 hours. Bound ^99mTc-peptide conjugate is separated on a Centricon filter unit (with, for example a 100 KDa cut off) and washed several times with PBS buffer. Saturable binding is indicated by calculation of a Kd (affinity constant) as well known in the art to help evaluate the relative amount of specific binding as opposed to non-specific binding. […]
Binding assays of ^99mTc-peptide with Aβ fibrils were performed in PBS. […] The concentration of aggregate-bound ^99mTc-peptide was calculated on the basis of activity retained on the filters. […]
Binding assays to preformed fibrils are performed using procedures as described in the literature (Klunk et al., 2001). […] The amount of activity incorporated in the fibrils is measured through γ-counting using previously published procedures (Zhen et al., 1999). […] The mixture is incubated at room temperature for 1.5 h, and the aggregate-bound ^99mTc-peptide and free radioactivity is separated by filtration through Centricon filtration units using a centrifuge. The aggregate-bound ^99mTc-peptide collected on filters is counted in a γ-counter. […]

RBE4 cell monolayers [5] = system: RBE4 cell monolayers
[6] = system: amyloid plaques in brain sections; assay: Staining of brain tissue sections of APPsw+/− and WT mice; set-up: species or system mouse; conditions: 40 μm sections
amyloid plaques in brain sections, sequence (P05067 672-711 limits assumed): as the sequence (P05067 672-711) above
Text: Staining experiments with cross sections of brain tissue from normal (WT) and APPsw+/− mice are suitable for evaluating target specificity of the peptide conjugate. For example, a candidate peptide conjugate is labeled with a fluorescent marker. A suitable marker is fluorescein-5-maleimide (FM; 3-equiv) in DMF, which labels the C-terminal thiol of the peptide. After a suitable reaction of peptide and FM at room temperature in the dark, the fluorescent-labeled peptide is purified, for example column-purified, requisite fraction eluted, combined, lyophilized and characterized through electron spray mass spectrometry. For tissue staining of brain sections of APPsw+/− mice (test) and WT mice (control), immunohistochemical staining of Aβ and for FM-peptide staining are performed according to published procedures (DeMattos et al., 2002; Holtzman et al., 2000). Rabbit-anti-pan Aβ antibody is used, for example, as a control, and visualized with anti-rabbit antibody conjugated with a fluorescent marker such as Alexa 568 (Molecular Probes). Staining of brain sections from normal and APPsw+/− mice are compared. Target specificity of the peptide is indicated by immunostaining of Aβ in APPsw+/− mice and no staining in WT mice.
Staining experiments with cross sections of brain tissue were also performed. […]

inulin [^14C-inulin]
transwell transport / permeation across RBE4 cells (RBE4 cell monolayers [1]): low transwell transport

Re-peptide: rhenium complex of peptide KKLVFFAεKGC, surrogate for the Tc-labeled peptide (KKLVFFA[εLys]GC; not fully specified (residue 7); printed as KKLVFFAεKGC; also: rhenium complex (peptide-based chelation core))
displacement of aggregate-bound ^99mTc-peptide by competitor [2]: displaceable to background conditions | acute toxicity [3]: nontoxic

^99mTc-peptide: peptide KKLVFFAεKGC (SEQ. ID. NO.: 1) radiolabeled with technetium-99m in its peptide-based chelation core (KKLVFFAKGC; not fully specified; conjugate chemistry not built)
Kd [4]: 352 ± 82 nM

^3H-Aβ1-40 peptide: full length tritiated Aβ1-40 peptide (SEQ. ID. NO.: 2)
transwell transport / permeation across RBE4 cells (RBE4 cell monolayers [5]): did not show any transwell transport

Aβ-binding peptide coupled with FM: peptide labeled on the C-terminal thiol with fluorescein-5-maleimide (FM) (KKLVFFAKGC(Fluorescein(5-Mal)); not fully specified (residues 7, 8); printed as KKLVFFAεKGC)
staining of Aβ plaques in brain sections of APPsw+/− mice ([6]; APPsw+/− mouse, 17 months old, FM-peptide 2 μM solution): staining of plaques in the cortical region | staining in brain sections of WT mice ([6]; control WT mouse (Bl/6; 13.5 months old)): no staining

From patent US7803351B2, “Blood brain barrier permeation peptides” (priority 2004, dated 2010)
